Data from PMC10313822, “Disruption of ER ion homeostasis maintained by an ER anion channel CLCC1 contributes to ALS-like pathologies” (Cell Research, 2023).
Where a chain is given by its changes, count along the chain named. Names and notes keep the numbering of the source.

B1: purified full-length mouse CLCC1, His-tagged (natural protein, UniProt Q99LI2 19-539, looked up)
chain: HDDDWIDPTDMLNYDAASGTMRKSQVRSGTSEKKEVSPDSSEAEELSDCLHRLDSLTHKVDSCEKKKMKDYESQSNPVFRRYLNKILIEAGKLGLPDENKVEMRYDAEILLSRQTLLEIQKFLSGEEWKPGALDDALSDILINFKCHDSEAWKWQFEDYFGVDPYNVFMVLLCLLCLVVLVATELWTYVRWYTQMKRIFIISFLLSLAWNWIYLYKMAFAQHQANIAGMEPFDNLCAKKMDWTGSLWEWFTSSWTYKDDPCQKYYELLIVNPIWLVPPTKALAITFTNFVTEPLKHIGKGAGEFIKALMKEIPVLLQIPVLAILALAVLSFCYGAGRSVPMLRHFGGPDREPPRALEPDDRRRQKGLDYRLHGGAGDADFSYRGPAGSIEQGPYDKMHASKRDALRQRFHSGNKSPEVLRAFDLPDTEAQEHPEVVPSHKSPIMNTNLETGELPGESTPTEYSQSAKDVSGQVPSAGKSSPTVDKAQLKTDSECSPPGGCPPSKEAAVAAHGTEPVSSPCG
notes: CLCC1, mouse, full length (NM_145543.2; 539 residues by the printed limits of the C-terminal polypeptide 355-539); The predicted signal peptide may be removed in insect cells; also called mCLCC1; WT mCLCC1; source: High Five insect cells (baculovirus), purified (Ni-NTA, Superose 6 Increase); not shown: His10, C-terminal, kept
B2: C350F mutant mouse CLCC1, purified (natural protein, UniProt Q99LI2 19-539, looked up)
chain: B1 chain with C332F
notes: CLCC1, mouse, full length, with C350F; also called C350F mCLCC1; source: High Five insect cells (baculovirus), purified (Ni-NTA, Superose 6 Increase)

Target: the molecule itself
Experiment: SEC; Superose 6 Increase, TBS (50 mM Tris-HCl pH 7.4, 150 mM NaCl) with 0.025% DDM and 2 mM DTT; size estimated from standard markers

Protein | binding result
B1 | binds
B2 | binds
